B1: M0040-A06 Fab (Fab, V domains shown)
VH: EVQLLESGGGLVQPGGSLRLSCAASGFTFSYYGMYWVRQAPGKGLEWVSSISSSGGYTDYADSVKGRFTISRDNSKNTLYLQMNSLRAEDTAVYYCARRIKYYDIEGEGAFDIWGQGTMVTVSS
VL: DIVMTQTPPSLPVNPGEPASISCRSSQSLLHRNGYNYLDWYLQKPGQSPQLLIHLGSYRASGVPDRFSGSGSGTDFTLKISRVEAEDVGVYYCMQPLQTPFTFGPGTKVDIK
B2: M0038-E06 Fab (Fab, V domains shown)
VH: EVQLLESGGGLVQPGGSLRLSCAASGFTFSPYVMHWVRQAPGKGLEWVSSISPSGGWTYYADSVKGRFTISRDNSKNTLYLQMNSLRAEDMAVYYCARGTGAYGMDVWGQGTTVTVSS
VL: DIQMTQSPGTLSLSPGDRATLSCGASQLVVSNYIAWYQQKPGQAPRLLMYAGSIRATGIPDRFSGSGSGTDFTLTISRLEPEDFAIYYCQQRSNWPWTFGQGTKVEIK
B3: M0038-E06 IgG (antibody, V domains shown)
VH: EVQLLESGGGLVQPGGSLRLSCAASGFTFSPYVMHWVRQAPGKGLEWVSSISPSGGWTYYADSVKGRFTISRDNSKNTLYLQMNSLRAEDMAVYYCARGTGAYGMDVWGQGTTVTVSS
VL: DIQMTQSPGTLSLSPGDRATLSCGASQLVVSNYIAWYQQKPGQAPRLLMYAGSIRATGIPDRFSGSGSGTDFTLTISRLEPEDFAIYYCQQRSNWPWTFGQGTKVEIK
B4: M0031-F01 Fab (Fab, V domains shown)
VH: EVQLLESGGGLVQPGGSLRLSCAASGFTFSTYEMHWVRQAPGKGLEWVSSIYSSGGWTGYADSVKGRFTISRDNSKNTLYLQMNSLRAEDTAVYYCARSQQYYDFSSRYYGMDVWGQGTTVTVSS
VL: QSELTQPPSVSGTPGQRVTISCSGTSANIGRNAVHWYQQLPGTAPKLLIHSNNRRPSGVPDRFSGSKSGTSASLAISGLQSEDEADYYCAAWENSLNAFYVFGTGTKVTVL
B5: M0031-F01 IgG (antibody, V domains shown)
VH: EVQLLESGGGLVQPGGSLRLSCAASGFTFSTYEMHWVRQAPGKGLEWVSSIYSSGGWTGYADSVKGRFTISRDNSKNTLYLQMNSLRAEDTAVYYCARSQQYYDFSSRYYGMDVWGQGTTVTVSS
VL: QSELTQPPSVSGTPGQRVTISCSGTSANIGRNAVHWYQQLPGTAPKLLIHSNNRRPSGVPDRFSGSKSGTSASLAISGLQSEDEADYYCAAWENSLNAFYVFGTGTKVTVL
B6: M0038-F01 Fab (Fab, V domains shown)
VH: EVQLLESGGGLVQPGGSLRLSCAASGFTFSLYSMNWVRQAPGKGLEWVSSIYSSGGSTLYADSVKGRFTISRDNSKNTLYLQMNSLRAEDTAVYYCARGRAFDIWGQGTMVTVSS
VL: DIQMTQSPSSLSAFVGDKVTITCRASQSVGTYLNWYQQKAGKAPELLIYATSNLRSGVPSRFSGSGSGTDFTLTINTLQPEDFATYYCQQSYSIPRFTFGPGTKVDIK
B7: M0038-F08 Fab (Fab, V domains shown)
VH: EVQLLESGGGLVQPGGSLRLSCAASGFTFSRYKMWWVRQAPGKGLEWVSGIRPSGGLTRYADSVKGRFTISRDNSKNTLYLQMNSLRAEDTAVYYCARRGDYVGGFDYWGQGTLVTVSS
VL: DIQMTQSPGTLSLSPGERATLSCRASQSVSSSYLAWYQQKPGQAPRLLIYGASSRATGIPDRFSGSGSGTDFTLTISRLEPEDFAVYYCQHYGGSQAFGGGTKVEIK
B8: M0038-F08 IgG (antibody, V domains shown)
VH: EVQLLESGGGLVQPGGSLRLSCAASGFTFSRYKMWWVRQAPGKGLEWVSGIRPSGGLTRYADSVKGRFTISRDNSKNTLYLQMNSLRAEDTAVYYCARRGDYVGGFDYWGQGTLVTVSS
VL: DIQMTQSPGTLSLSPGERATLSCRASQSVSSSYLAWYQQKPGQAPRLLIYGASSRATGIPDRFSGSGSGTDFTLTISRLEPEDFAVYYCQHYGGSQAFGGGTKVEIK
B9: M0040-A06 IgG (antibody, V domains shown)
VH: EVQLLESGGGLVQPGGSLRLSCAASGFTFSYYGMYWVRQAPGKGLEWVSSISSSGGYTDYADSVKGRFTISRDNSKNTLYLQMNSLRAEDTAVYYCARRIKYYDIEGEGAFDIWGQGTMVTVSS
VL: DIVMTQTPPSLPVNPGEPASISCRSSQSLLHRNGYNYLDWYLQKPGQSPQLLIHLGSYRASGVPDRFSGSGSGTDFTLKISRVEAEDVGVYYCMQPLQTPFTFGPGTKVDIK
B10: M0033-H07 Fab (Fab, V domains shown)
VH: EVQLLESGGGLVQPGGSLRLSCAASGFTFSVYGMVWVRQAPGKGLEWVSVISSSGGSTWYADSVKGRFTISRDNSKNTLYLQMNSLRAEDTALYYCARPFSRRYGVFDYWGQGTLVTVSS
VL: DIQMTQSPSSLSASVGDRVTITCRASQGIRNFLAWYQQKPGKVPKLLVFGASALQSGVPSRFSGSGSGTDFTLTISGLQPEDVATYYCQKYNGVPLTFGGGTKVEIK
B11: M0039-H08 Fab (Fab, V domains shown)
VH: EVQLLESGGGLVQPGGSLRLSCAASGFTFSAYNMGWVRQAPGKGLEWVSSISSSGGYTGYADSVKGRFTISRDNSKNTLYLQMNSLRAEDTAVYYCARDLYRGFDYWGQGTLVTVSS
VL: DIQMTQSPATLSVSPGERATLSCRASESVKNNLAWYQQKPGQAPRLLIYGVSTRAPGIPARFSGSGSGTDFTLTISSLEPEDFAVYYCQQRSNWPPVTFGQGTRLEIK
B12: M0039-H08 IgG (antibody, V domains shown)
VH: EVQLLESGGGLVQPGGSLRLSCAASGFTFSAYNMGWVRQAPGKGLEWVSSISSSGGYTGYADSVKGRFTISRDNSKNTLYLQMNSLRAEDTAVYYCARDLYRGFDYWGQGTLVTVSS
VL: DIQMTQSPATLSVSPGERATLSCRASESVKNNLAWYQQKPGQAPRLLIYGVSTRAPGIPARFSGSGSGTDFTLTISSLEPEDFAVYYCQQRSNWPPVTFGQGTRLEIK
B13: M0040-A11 IgG (antibody, V domains shown)
VH: EVQLLESGGGLVQPGGSLRLSCAASGFTFSHYVMFWVRQAPGKGLEWVSRIVPSGGATMYADSVKGRFTISRDNSKNTLYLQMNSLRAEDTAVYYCARDRPLYDSSGYVDYWGQGTLVTVSS
VL: QSALTQPPSASGSPGQSVTISCTGTSSDVGAYNYVSWYQQHPDKAPKLIIYNVNERPSGVPDRFSGSKSGNTASLTVSGLQAEDEADYYCTSYAGSNKIGVSGTGTKVTVL
B14: M0031-C02 IgG (antibody, V domains shown)
VH: EVQLLESGGGLVQPGGSLRLSCAASGFTFSPYPMGWVRQAPGKGLEWVSSIVSSGGLTLYADSVKGRFTISRDNSKNTLYLQMNSLRAEDTAVYYCARGGRLYDILTGQGAPFDYWGQGTLVTVSS
VL: DIQMTQSPLSLPVTPGEPASISCRSSQSLLHSNGYYYLDWYLQKPGQSPQLLIYLGSYRASGVPDRFSGSGSGTDFTLKISSVEAEDVGVYYCMQALQTPLTFGGGTRVDIK
B15: M0037-D01 Fab (Fab, V domains shown)
VH: EVQLLESGGGLVQPGGSLRLSCAASGFTFSMYMMIWVRQAPGKGLEWVSSIYPSGGNTMYADSVKGRFTISRDNSKNTLYLQMNSLRAEDTAVYYCATGVLRYFDWDAGSGMDVWGQGTTVTVSS
VL: DIQMTQSPSSLSASVGDRVTITCRASQGIRNDLGWYQQKPGKAPKRLIYVASSLQSGVPSRFSGSGSGTEFTLTISSLQPEDFATYYCLQHNSYPWTFGQGTKVEIK

Each binder was assayed against MMP-24 (human, UniProt Q9Y5R2 156-328, limits assumed) (assay: cell-based or functional assay).
Sequence of MMP-24 (Q9Y5R2 156-328 limits assumed): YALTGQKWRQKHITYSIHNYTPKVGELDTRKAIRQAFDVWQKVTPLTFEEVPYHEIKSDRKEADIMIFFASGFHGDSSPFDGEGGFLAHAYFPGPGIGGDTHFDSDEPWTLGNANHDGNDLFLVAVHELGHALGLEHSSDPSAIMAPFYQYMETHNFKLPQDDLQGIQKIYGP
For B1, the “MMP-24 activity, 100 nM final Fab with 5 nM MMP-24” value was 65 % inhibition.

The binders below were run against human MMP-14 (human, UniProt P50281 112-541, limits assumed) (assay: cell-based or functional assay).
B1 was tested, and the “IC50 of MMP-14 inhibition (MMP-14 at 2 pM), Fab” value (“IC50 of MMP-14 inhibition … Fab” below) was 8.6 nM.
B2 was tested, and the “IC50 of MMP-14 inhibition … Fab” value was 16.6 nM.
In the case of B3, the “IC50 of MMP-14 inhibition (MMP-14 at 2 pM), IgG” value (from here on “IC50 of MMP-14 inhibition … IgG”) is reported as 7.2 nM.
For B4, the “IC50 of MMP-14 inhibition … Fab” value was 25.3 nM.
In the case of B5, the “IC50 of MMP-14 inhibition … IgG” value is reported as 15.2 nM.
B6 was tested, and the “IC50 of MMP-14 inhibition … Fab” value was 3.8 nM.
With B7 the “IC50 of MMP-14 inhibition … Fab” value was 31.1 nM.
For B8, the “IC50 of MMP-14 inhibition … IgG” value was 23 nM.
In the case of B9, the “IC50 of MMP-14 inhibition … IgG” value is reported as 1.7 nM.
For B10, the “IC50 of MMP-14 inhibition … Fab” value was 11.5 nM.
For B11, the “IC50 of MMP-14 inhibition … Fab” value was 23 nM.
B12 was tested, and the “IC50 of MMP-14 inhibition … IgG” value was 7.4 nM.
B13 was tested, and the “IC50 of MMP-14 inhibition … IgG” value was 6.7 nM.
With B14 the “IC50 of MMP-14 inhibition … IgG” value was 8 nM.
With B15 the “IC50 of MMP-14 inhibition … Fab” value was 4.3 nM.
